One series addresses GST-CEP19 (human) (UniProt Q96LK0). In words: pull-down.
Series [1] deals with GST-CrCEP19 (Chlamydomonas reinhardtii). In words: pull-down.
Series [2] deals with the molecule itself.

Chain of GST-CEP19 (human) (Q96LK0 whole entry): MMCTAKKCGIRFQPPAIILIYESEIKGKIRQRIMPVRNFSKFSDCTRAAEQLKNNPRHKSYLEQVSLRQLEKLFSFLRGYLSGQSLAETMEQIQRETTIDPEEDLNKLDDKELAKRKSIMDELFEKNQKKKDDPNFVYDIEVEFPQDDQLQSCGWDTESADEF

Turning to “MYC-RABL2B, full length (in vitro translated) (from UniProt Q9UNT1 1-228) (natural protein)”, the fold enhancement of binding by GTP addition with GST-CEP19 (human) is 5 fold.
Take “MYC-CrRabl2 (in vitro translated) (natural protein)”: the fold enhancement of binding by GTP addition in series [1] amounted to 5 fold.

B1: untagged human RABL2B (natural protein, UniProt Q9UNT1-2 1-229, looked up)
chain: MAEDKTKPSELDQGKYDADDNVKIICLGDSAVGKSKLMERFLMDGFQPQQLSTYALTLYKHTATVDGRTILVDFWDTAGQERFQSMHASYYHKAHACIMVFDVQRKVTYRNLSTWYTELREFRPEIPCIVVANKIDADINVTQKSFNFAKKFSLPLYFVSAADGTNVVKLFNDAIRLAVSYKQNSQDFMDEIFQELENFSLEQEEEDVPDQEQSSSIETPSEEAASPHS
For orientation: stoichiometry N means a count of units in the complex or per binding partner. For B1, the “stoichiometry N” value in series [2] turned out to be 4.

The values are drawn from paper PMC5556974 (Developmental cell, 2017).
